Experiment [1] deals with fluorescein-labeled P5 peptide (F-P5) (chicken). Put plainly: fluorescence polarisation.
The target of experiment [2] is fluorescein-labeled Isu1 peptide (F-Isu1) (S. cerevisiae). As to the kind of experiment: fluorescence polarisation. On the technique in general: In fluorescence polarisation assays a small probe gives low polarisation when free and higher when bound to something large.
Experiment [3] addresses fluorescein-labeled P5 peptide (F-P5) (chicken). As to the kind of experiment: fluorescence polarisation. This is another data set of the same source.
Experiment [4] has as its target T1, Ssc1 (mitochondrial heat shock protein 70 of Saccharomyces cerevisiae) (S. cerevisiae, UniProt P0CS90 24-654). As to the kind of experiment: fluorescence polarisation.
The target in experiment [5] is T1, Ssc1 (mitochondrial heat shock protein …). Put plainly: pull-down.
For experiment [6], the target named is T2, substrate-binding domain of Ssc1, Ssc1(418–654) (S. cerevisiae, UniProt P0CS90 418-654).
T2 sequence (looked up): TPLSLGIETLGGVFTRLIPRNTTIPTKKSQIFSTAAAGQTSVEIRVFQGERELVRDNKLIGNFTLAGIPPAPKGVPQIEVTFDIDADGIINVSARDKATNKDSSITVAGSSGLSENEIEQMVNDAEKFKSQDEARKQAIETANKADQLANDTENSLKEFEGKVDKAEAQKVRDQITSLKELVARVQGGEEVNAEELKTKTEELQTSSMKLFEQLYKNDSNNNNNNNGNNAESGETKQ
Put plainly: fluorescence polarisation.

In experiment [7] the target is T1, Ssc1 (mitochondrial heat shock protein …). Put plainly: fluorescence polarisation. This is another data set of the same source.
The target is the same in experiment [8]. As to the kind of experiment: fluorescence polarisation. This is another data set of the same source.
Experiment [9] has the same target. As to the kind of experiment: fluorescence polarisation. This is another data set of the same source.

Where two headings read alike, the source gives them in different places. No end group written: not given here. fluorescein = fluorescein fluorophore covalently attached to the cysteine residue

Consider “SBD_(Ssc1)-(ABCD)_(Ssc3) chimera (variable domain of the SBD of Ssc1 replaced with that of Ssc3) (domain or fragment)”, for which the Kd – broadly, a measure of binding affinity in units of concentration – in [1] is 22.7 µM.

Regarding “Ssc3 (mitochondrial Hsp70 paralog of Saccharomyces cerevisiae) (natural protein)”, the results for the Kd in experiment [2], in experiment [1] and in experiment [3] were > 90 µM, 30.1 µM and 26.3 µM, respectively. The koff (commonly the first-order rate constant of dissociation) in [1] came to 0.244 s⁻¹.

In turn, LSLPPVKLHC(fluorescein) [fluorescein-labeled Isu1 peptide (F-Isu1)] gave a dissociation constant Kd in experiment [4] of 7.07 ± 0.872 µM.

B1: GST-Hep1 (yeast Hep1 co-chaperone) (natural protein, yeast (S. cerevisiae), UniProt P42844 48-174, looked up)
chain: NEVKKDDKKVHLGSFKVDKPKMMIAFTCKKCNTRSSHTMSKQAYEKGTVLISCPHCKVRHLIADHLKIFHDHHVTVEQLMKANGEQVSQDVGDLEFEDIPDSLKDVLGKYAKNNSENASQLPHPSQK
Consider B1, for which the dissociation constant (Kd) in experiment [5] was ~1.5 µM.

On to CALLLSAPRR (fluorescein fluorophore covalently attached to the cysteine residue) [fluorescein-labeled P5 peptide (F-P5)], for which the results for the Kd in experiment [6], in experiment [7] and in experiment [9] were 0.264 ± 0.041 µM, 0.231 ± 0.014 µM and 30.9 ± 2.6 µM, respectively. Besides, the koff in experiment [8] amounted to 0.003 s⁻¹.

For the origin of these results see paper PMC3099715 (The Journal of Biological Chemistry, 2011).
